Target: C-terminally biotinylated γc ectodomain (human) (UniProt P31785)
Experiment: site 2 affinity of free super-4 for γc; method not stated

B1: super-4 (IL-4 RGA), free, not bound to IL-4Rα (ligand)
chain: HKCDITLQEIIKTLNSLTEQKTLCTELTVTDIFAASKNTTEKETFCRAATVLRQFYSHHEKDTRCLGATAQQFHRHKQLIRFLKRLDRNLWGLAGLNSCPVKEANQSTLENFLERLRVIMQSKWFKCGAHHHHHH
- Kd: 300 nM
